Measured values from patent publication US20250289871A1.

Target: SARS-CoV-2 Delta + T51I + T95I spike protein (authentic virus) (SARS-CoV-2), P0DTC2
Assay: cell-based or functional assay

B1: RQ43-GL-H-LO1 (TM-YTE) (antibody, V domains shown)
VH: EVQLVESGGGLVQPGRSLRLSCAASGFPFDDYAIHWVRLAPGKGLEWVSSISWDSGSIGYADSVKGRFTISRDNAKNSLYLQMNSLRAEDTALYYCAKGAFPGYSSGWYYGLEVWGQGTTVTVSS
VL: QSVVTQPPSASGSLGQSVTISCTGTSSDVGGYNYVSWYQQHPGKAPKLMIFEVSKRPSGVPDRFSGSKSGNTASLTVSGLQAEDEADYYCSSYAGNKGVFGGGTKLTVL
- Authentic Virus Neutralization IC50: 0.021 µg/mL
